{"source": "paper PMC5841623", "about": "(Journal of molecular biology, 2016)", "binders": {"B1": {"name": "Recombinant His-MLF (natural protein, Drosophila, UniProt Q9NKV0-2 1-309, looked up)", "chain": "MSLFGALMGDFDDDLGLMNNHMNHTMNAMNMQMRSMNRLMNSFMPDPFMQVSPFDQGFQQNALMERPQMPAMPAMGLFGMPMMPNFNRLLNADIGGNSGASFCQSTVMTMSSGPDGRPQIYQASTSTKTGPGGVRETRRTVQDSRTGVKKMAIGHHIGERAHIIEKEQDMRSGQLEERQEFINLEEGEAEQFDREFTSRASRGAVQSRHHAGGMQAIMPARPAAHTSTLTIEPVEDDDDDDDDCVIQEQQPVRSSAGRHYSSAPTAPQNSIHPHPYAANPRRQQRAVKHFHTEDEAASSYKAVKRGKKK"}}, "target": "Recombinant DnaJ-1-HA (Drosophila, UniProt Q24133 1-334)", "sequence (Q24133 whole entry)": "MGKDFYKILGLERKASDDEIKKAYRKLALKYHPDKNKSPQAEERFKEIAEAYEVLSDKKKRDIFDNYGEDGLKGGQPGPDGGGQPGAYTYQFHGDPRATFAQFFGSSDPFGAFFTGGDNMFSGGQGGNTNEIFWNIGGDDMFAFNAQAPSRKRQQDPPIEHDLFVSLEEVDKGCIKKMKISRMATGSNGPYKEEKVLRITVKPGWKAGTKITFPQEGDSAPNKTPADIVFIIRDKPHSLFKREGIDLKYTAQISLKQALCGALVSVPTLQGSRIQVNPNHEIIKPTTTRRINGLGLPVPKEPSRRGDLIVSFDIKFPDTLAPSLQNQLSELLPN", "assay": "co-IP"}
{"binder": "B1", "values": [{"measurement": "binding result", "result": "binds"}]}
